Target: T1, CCR4 endogenously expressed on CCRF-CEM cells (UniProt P51679 1-360, limits assumed)
T1 sequence (looked up): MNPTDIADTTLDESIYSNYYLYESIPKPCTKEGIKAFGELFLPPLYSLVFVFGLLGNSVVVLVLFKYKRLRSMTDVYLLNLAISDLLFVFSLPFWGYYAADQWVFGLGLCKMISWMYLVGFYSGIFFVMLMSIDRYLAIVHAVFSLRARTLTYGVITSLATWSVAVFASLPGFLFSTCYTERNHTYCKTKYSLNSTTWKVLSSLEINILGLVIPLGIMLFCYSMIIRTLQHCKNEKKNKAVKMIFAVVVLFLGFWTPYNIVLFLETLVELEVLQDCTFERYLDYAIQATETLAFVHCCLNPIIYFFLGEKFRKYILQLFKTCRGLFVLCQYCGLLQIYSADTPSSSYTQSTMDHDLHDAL
Assay: cell-based or functional assay

calcium flux of CCRF-CEM cells (Fluo-8 NW dye fluorescence), EC50: 0.665 ng/mL
B1: mature Macaca fascicularis CCL17 (cynoCCL17), refolded from E. coli inclusion bodies (ligand)
chain: ARGTNVGRECCLKYFKGAIPLRKLKTWYQTSEDCSRDAIVFVTVQNKAICSDPNDKKVKKALKYLQSL
